The assay concerns the target Cry1Ac toxin (Bacillus thuringiensis, UniProt P05068 29-623, rhodamine label (5(6)-TAMRA SE) in the cell-staining assay; coupled to CNBr-activated Sepharose 4B in the affinity assay). The experiment in a line: rhodamine-labeled toxin staining of fixed Sf21 cells, confocal microscopy.

B1: Manduca sexta 120 kDa aminopeptidase N APN1a expressed in Sf21 cells transfected with pHSP120 (receptor)
chain: PSYRLPTTTRPRHYAVTLTPYFDVVPAGVSSLTTFSFDGEVTIYISPTQANVNEIVLHCNDLTIQSLRVTYVSGNSEVDITATGQTFTCEMPYSFLRIRTSTPLVMNQEYIIRSTFRGNLQTNMRGFYRSWYVDRTGKRWMATTQLQPGHARQAFPCYDEPGFKATFDITMNREADFSPTISNMPIRATTTLTNGRISETFFTTPLTSTYLLAFIVSHYQVISNNNNAARPFRIYARNNVGSQGDWSLEMGEKLLLAMENYTAIPYYTMAQNIDMKQAAIPDFSAGAMENWGLLTYREALILYDPLNSNHHYRQRVANIVSHEIAHMWFGNLVTCAWWDNLWLNEGFARFYQYYLTATVDPELGYEIRFIPEQLQVAMFSDSVDSAHALTDTSVNDPVAVSAHFSTITYARGAAILRMTQHLLSYDTFVKGLRQYLRARQFDVAEPYHLFSALDAAAAEDNALAAYTGITIDAYFRTWSEKAGHPLLSVTVDHETGRMTLVQARWERNTGVSRFPGLWHIPITWTRAGAPDFENLKPSQVMTGQSLVIDRGTRGQEWVIFNKQVSGFYRVNYDNTTWGLITRALRSANRTVIHELSRSQIVDDVFQLARSGVMSYQRALNILSYLRFEDAYAPWLSAISGFNWVIRRFAHDAANLQTLQNQIIGLSEAVVARLGFTEVSGGTYMTDLQRLHVMQFLCNVGHQQCIDTGRQNFLNWRNGSFIPANMRPWVYCTGLRYGSAEDFNYFWNRYIVEDLSNEKVVMLEAAGCTRDQASLEKFLNAIVSGNDDVRPQDHSSALSSAITSNDVNTMRAFDWLTKNVDQITRTLGSITSPLNTITSRLLTEAQMTQVQTWLDANRNTIGAAYNTGVNGIATSRANLQWSANRMSEFLRFFETGFVDDVPSEATTVAPPAETTVTPSTFPPTEAPATTPAPG
modifications: GPI anchor at the C-terminus; heterogeneously glycosylated (residues not stated)
notes: also called expressed APN; expressed 120 kDa APN
B1: the binding result is listed as “no binding (tested: 1 µg/ml)”.

The values above are taken from patent publication US7011975 (UNIVERSITY OF GEORGIA RESEARCH FOUNDATION, dated 2006).
